In US20240052042A1 (Novartis, published 2024):

T1: human NPR1 on CHO-K1 cells (human, UniProt P16066 33-1061)
T1 sequence: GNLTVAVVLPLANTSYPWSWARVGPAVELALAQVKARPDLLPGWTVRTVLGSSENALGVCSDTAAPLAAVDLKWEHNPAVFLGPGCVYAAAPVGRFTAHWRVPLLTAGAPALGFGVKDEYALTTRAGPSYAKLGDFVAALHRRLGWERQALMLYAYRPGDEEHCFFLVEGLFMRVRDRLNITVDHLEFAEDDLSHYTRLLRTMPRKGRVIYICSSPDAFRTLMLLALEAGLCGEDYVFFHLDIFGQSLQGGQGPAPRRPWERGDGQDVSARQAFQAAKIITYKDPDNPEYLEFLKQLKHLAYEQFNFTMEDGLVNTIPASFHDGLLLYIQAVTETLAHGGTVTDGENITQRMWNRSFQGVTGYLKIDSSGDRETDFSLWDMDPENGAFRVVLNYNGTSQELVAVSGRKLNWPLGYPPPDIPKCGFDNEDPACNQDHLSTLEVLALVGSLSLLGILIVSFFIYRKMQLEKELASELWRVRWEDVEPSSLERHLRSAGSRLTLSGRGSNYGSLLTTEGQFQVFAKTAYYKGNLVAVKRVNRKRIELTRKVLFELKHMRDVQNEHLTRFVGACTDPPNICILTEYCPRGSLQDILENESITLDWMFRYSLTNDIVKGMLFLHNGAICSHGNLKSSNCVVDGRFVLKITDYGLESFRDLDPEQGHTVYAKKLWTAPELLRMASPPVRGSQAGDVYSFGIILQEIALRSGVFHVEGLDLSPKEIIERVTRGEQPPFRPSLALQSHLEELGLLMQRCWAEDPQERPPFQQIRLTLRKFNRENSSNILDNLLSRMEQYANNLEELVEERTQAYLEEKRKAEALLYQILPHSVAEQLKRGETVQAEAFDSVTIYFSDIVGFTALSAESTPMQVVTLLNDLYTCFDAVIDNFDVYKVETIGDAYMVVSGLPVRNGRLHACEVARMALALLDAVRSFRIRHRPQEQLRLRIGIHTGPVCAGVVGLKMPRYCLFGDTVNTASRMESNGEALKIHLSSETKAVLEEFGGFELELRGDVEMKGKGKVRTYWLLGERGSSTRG

T2: human NPR3 (counter target) (human, UniProt P17342 27-481, limits assumed)
T2 construct: Pannings used hNPR3-hFc; also called hNPR3; hNPR3-hFc
T2 sequence (looked up): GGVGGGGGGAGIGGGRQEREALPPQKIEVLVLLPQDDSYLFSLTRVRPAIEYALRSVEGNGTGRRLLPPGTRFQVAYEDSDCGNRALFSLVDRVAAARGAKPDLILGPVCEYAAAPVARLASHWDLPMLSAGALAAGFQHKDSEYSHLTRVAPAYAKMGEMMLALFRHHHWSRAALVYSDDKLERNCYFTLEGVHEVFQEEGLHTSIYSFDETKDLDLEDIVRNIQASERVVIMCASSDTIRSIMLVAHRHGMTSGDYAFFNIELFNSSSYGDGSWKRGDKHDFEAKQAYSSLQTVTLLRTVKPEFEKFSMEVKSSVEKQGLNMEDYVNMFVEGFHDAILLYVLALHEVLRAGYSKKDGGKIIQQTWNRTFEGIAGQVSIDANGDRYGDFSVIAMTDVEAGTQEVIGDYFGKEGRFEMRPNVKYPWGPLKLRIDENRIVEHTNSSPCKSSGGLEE

T3: human NPR3 in the presence of ANP (human, UniProt P17342 27-481; P01160 124-151, limits assumed)
T3 construct: also called hNPR3 + 100 nM ANP
T3 sequence (looked up): T2 sequence (looked up)
T3 sequence (peptide, looked up): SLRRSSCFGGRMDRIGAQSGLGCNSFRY

T4: hNPR1-ANP complex (human, UniProt P01160 124-151, limits assumed)
T4 construct: hNPR1 antigen in the presence of ANP; also called hNPR1 + 100 nM ANP
T4 sequence: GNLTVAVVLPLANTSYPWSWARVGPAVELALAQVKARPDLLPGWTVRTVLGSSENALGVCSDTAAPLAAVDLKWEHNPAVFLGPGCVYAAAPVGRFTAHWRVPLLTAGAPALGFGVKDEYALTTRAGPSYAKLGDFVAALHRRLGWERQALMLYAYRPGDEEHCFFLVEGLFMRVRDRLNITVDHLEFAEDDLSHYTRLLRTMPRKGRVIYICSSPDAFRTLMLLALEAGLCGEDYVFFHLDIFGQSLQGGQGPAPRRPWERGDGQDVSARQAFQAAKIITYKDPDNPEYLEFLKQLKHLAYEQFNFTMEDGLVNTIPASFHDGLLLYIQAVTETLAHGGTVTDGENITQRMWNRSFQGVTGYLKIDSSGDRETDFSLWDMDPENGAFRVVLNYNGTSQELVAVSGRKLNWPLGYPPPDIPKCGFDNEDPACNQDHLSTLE
T4 sequence (peptide): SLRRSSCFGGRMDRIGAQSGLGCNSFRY

T5: rat NPR1 (rNPR1) (rat, UniProt P18910 29-469, limits assumed)
T5 construct: Soluble antigen
T5 sequence: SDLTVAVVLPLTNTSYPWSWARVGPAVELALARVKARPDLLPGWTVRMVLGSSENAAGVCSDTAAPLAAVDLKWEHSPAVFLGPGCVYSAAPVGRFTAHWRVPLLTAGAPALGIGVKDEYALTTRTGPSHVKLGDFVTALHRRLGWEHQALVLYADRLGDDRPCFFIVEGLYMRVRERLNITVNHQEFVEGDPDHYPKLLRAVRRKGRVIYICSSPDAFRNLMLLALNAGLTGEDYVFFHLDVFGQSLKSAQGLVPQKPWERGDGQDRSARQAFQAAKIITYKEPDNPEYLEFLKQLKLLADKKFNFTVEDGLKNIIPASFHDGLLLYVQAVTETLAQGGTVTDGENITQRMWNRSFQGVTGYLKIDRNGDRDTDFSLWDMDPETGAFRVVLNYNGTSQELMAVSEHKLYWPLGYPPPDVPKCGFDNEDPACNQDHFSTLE

T6: human Natriuretic Peptide Receptor 1 (hNPR1) (human, UniProt P16066 33-473, limits assumed)
T6 construct: pannings used NPR1-hFc; also called NPR1-hFc
T6 sequence: T4 sequence

T7: rNPR1-ANP complex (rat, UniProt P01160 124-151 (human entry), limits assumed)
T7 construct: rNPR1 antigen in the presence of ANP; also called rNPR1 + 100 nM ANP
T7 sequence: T5 sequence
T7 sequence (peptide): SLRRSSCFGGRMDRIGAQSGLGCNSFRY

T8: human NPR1 on CHO-K1 cells in the presence of ANP (human, UniProt P01160 124-151)
T8 construct: also called hNPR1 CHO K1 + 100 nM ANP
T8 sequence: T1 sequence
T8 sequence (peptide): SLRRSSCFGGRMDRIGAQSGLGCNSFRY

B1: WW03 (FabCys format) (Fab, V domains shown)
VH: QVQLLESGGGLVQPGGSLRLSCAASGFTFSSYWMNWVRQAPGKGLEWVSAISSDGSYTYYADSVKGRFTISRDNSKNTLYLQMNSLRAEDTAVYYCARDRYSMIYSYGAGAFDYWGQGTLVTVSS
VL: DIQMTQSPSSLSASVGDRVTITCRASQGISSYLAWYQQKPGKAPKLLIYTASTLQSGVPSRFSGSGSGTDFTLTISSLQPEDFATYYCMQSYEKPRTFGQGTKVEIK
notes: Monovalent FabCys
B2: WW03 (IgG format) (antibody, V domains shown)
VH: B1 VH
VL: DIQMTQSPSSLSASVGDRVTITCRASQGISSYLAWYQQKPGKAPKLLIYTASTLQSGVPSRFSGSGSGTDFTLTISSLQPEDFATYYCMQSYEKPRTFGQGTKVEIKR
notes: also called WW03_LALA

Columns and labels:
[1] = target: T1, human NPR1 on CHO-K1 cells; experiment: cell-based or functional assay
[2] = target: T2, human NPR3 (counter target); experiment: FabCys affinity determination
[3] = target: T3, human NPR3 in the presence of ANP; experiment: FabCys affinity determination
[4] = target: T4, hNPR1-ANP complex; experiment: FabCys, parental value by Biacore, as in Table 5
[5] = target: T5, rat NPR1 (rNPR1); experiment: FabCys, parental value by Biacore, as in Table 5
[6] = target: T6, human Natriuretic Peptide Receptor 1 …; experiment: FabCys, parental value by Biacore, as in Table 5
[7] = target: T7, rNPR1-ANP complex; experiment: FabCys, parental value by Biacore, as in Table 5
[8] = target: T4, hNPR1-ANP complex; experiment: FabCys affinity (Biacore per paragraph 323)
[9] = target: T5, rat NPR1 (rNPR1); experiment: FabCys affinity (Biacore per paragraph 323)
[10] = target: T6, human Natriuretic Peptide Receptor 1 …; experiment: FabCys affinity (Biacore per paragraph 323)
[11] = target: T7, rNPR1-ANP complex; experiment: FabCys affinity (Biacore per paragraph 323)
[12] = target: T3, human NPR3 in the presence of ANP; experiment: ELISA, IgG titrated on coated antigen with ANP (250 fold molar excess), fluorescence [Cont.]
[13] = target: T8, human NPR1 on CHO-K1 cells in the …; experiment: flow cytometry, hNPR1 CHO-K1 cells, IgG
[14] = target: T2, human NPR3 (counter target); experiment: ELISA, IgG titrated on coated antigen, fluorescence [Cont.]
[15] = target: T4, hNPR1-ANP complex; experiment: ELISA, IgG
[16] = target: T6, human Natriuretic Peptide Receptor 1 …; experiment: ELISA, IgG

Binder | cGMP conc [nM] at 2 µM FabCys, +0.075 nM ANP [1] [nM] | cGMP conc [nM] at 2 µM FabCys, without ANP [1] [nM] | binding result [2] | binding result [3] | Kd [4] [nM] | Kd [5] [nM] | Kd [6] [nM] | Kd [7] [nM] | Kd [8] [nM] | Kd [9] [nM] | Kd [10] [nM] | Kd [11] [nM] | binding result [12] | flow cytometry S/BG at 2 µM IgG [13] [S/BG] | binding result [14] | EC50 [15] [nM] | EC50 [16] [nM]
B1 | 108 | 32 | no binding | no binding | 0.1 | 2600 | 1000 | 1 | 0.1 | 2600 | 1000 | 1 | – | – | – | – | –
B2 | – | – | – | – | – | – | – | – | – | – | – | – | no binding (tested: 1000 nM) | 214 | no binding (tested: 1000 nM) | 1.4 | 42.7
